This note sets out measurements from publication doi:10.1101/2020.07.19.211243.

Values joined by “and” are separate entries in the source; they are usually repeats but may differ in a detail not shown here. Equal entries are not always repeated. Where two headings read alike, the source gives them in different places.

Experiment in all cases: SDS-PAGE
The target of test [1] is Triops cancriformis (tadpole shrimp) sarcolamban peptide (Triops cancriformis).
Test [2] concerns the target Daphnia pulex (water flea) sarcolamban peptide (Daphnia pulex).
The target is the same in test [3]. This is another data set of the same source.

By stoichiometry N is commonly meant a count of units in the complex or per binding partner. The substance “Triops cancriformis (tadpole shrimp) sarcolamban peptide” yielded a stoichiometry N in test [1] of 2.
“Daphnia pulex (water flea) sarcolamban peptide”: the stoichiometry N in test [2] was 3 and 4 and 5; in test [3] it was 2.
